The data set deals with the molecule itself. Nature of the data set: native gel or EMSA. For orientation: In EMSA bound probe runs differently from free probe, usually more slowly.

Values joined by “and” are separate entries in the source; they are usually repeats but may differ in a detail not shown here. Equal entries are not always repeated.

The term stoichiometry N denotes the number of molecules, sites or subunits per partner or assembly.

B1: full length rat phenylalanine hydroxylase (PAH) (enzyme, UniProt P04176 1-453, looked up)
chain: MAAVVLENGVLSRKLSDFGQETSYIEDNSNQNGAISLIFSLKEEVGALAKVLRLFEENDINLTHIESRPSRLNKDEYEFFTYLDKRTKPVLGSIIKSLRNDIGATVHELSRDKEKNTVPWFPRTIQELDRFANQILSYGAELDADHPGFKDPVYRARRKQFADIAYNYRHGQPIPRVEYTEEEKQTWGTVFRTLKALYKTHACYEHNHIFPLLEKYCGFREDNIPQLEDVSQFLQTCTGFRLRPVAGLLSSRDFLGGLAFRVFHCTQYIRHGSKPMYTPEPDICHELLGHVPLFSDRSFAQFSQEIGLASLGAPDEYIEKLATIYWFTVEFGLCKEGDSIKAYGAGLLSSFGELQYCLSDKPKLLPLELEKTACQEYSVTEFQPLYYVAESFSDAKEKVRTFAATIPRPFSVRYDPYTQRVEVLDNTQQLKILADSINSEVGILCNALQKIKS
On to B1, for which the “stoichiometry N” value was 4 and 2.

B2: full length human phenylalanine hydroxylase (PAH) (enzyme, UniProt P00439 1-452, looked up)
chain: MSTAVLENPGLGRKLSDFGQETSYIEDNCNQNGAISLIFSLKEEVGALAKVLRLFEENDVNLTHIESRPSRLKKDEYEFFTHLDKRSLPALTNIIKILRHDIGATVHELSRDKKKDTVPWFPRTIQELDRFANQILSYGAELDADHPGFKDPVYRARRKQFADIAYNYRHGQPIPRVEYMEEEKKTWGTVFKTLKSLYKTHACYEYNHIFPLLEKYCGFHEDNIPQLEDVSQFLQTCTGFRLRPVAGLLSSRDFLGGLAFRVFHCTQYIRHGSKPMYTPEPDICHELLGHVPLFSDRSFAQFSQEIGLASLGAPDEYIEKLATIYWFTVEFGLCKQGDSIKAYGAGLLSSFGELQYCLSEKPKLLPLELEKTAIQNYTVTEFQPLYYVAESFNDAKEKVRNFAATIPRPFSVRYDPYTQRIEVLDNTQQLKILADSINSEIGILCSALQKIK
As for B2, the “stoichiometry N” value is 4 and 2.

The values above are taken from publication PMC3580015 (Archives of biochemistry and biophysics, 2013).
